Measured values from the supplement of paper PMC10126150.
± gives the standard deviation of the averaged measurements.

system: ATP; experiment: switch fluorescence ratio, 500 uM ATP over buffer (Cy3 cluster intensity, sum of 5 cycles each) (fold (ratio)); higher = stronger signal-on switching upon ATP binding; sequences stand for … in TCGTCGGCAGCGTCAGATGTGTATAAGAGACAGTTTTTTTTTTTTTTTTTTTTTTTTT…TC; conditions: aptamer strand: ATP DNA aptamer (quencher-CACCTGGGGGAGTATTGCGGAGGAAGG + anchor), 100 nM annealed; ATP concentration: 500 uM
How it was run: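 Clusters with intensities outside 100-1000 RFU were excluded. The remaining Cy3-labelled switching-strand clusters on a modified Illumina MiSeq flow-cell had been annealed to 100 nM quencher-labelled ATP aptamer and imaged in selection buffer, then after 15 min with 500 uM ATP at 22 °C, for five cycles separated by NaOH stripping and re-annealing. The fluorescence ratio, averaged per switch-domain sequence, is each cluster's summed target-cycle Cy3 intensity over its summed buffer-cycle Cy3 intensity.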
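Also: ATP exposure 15 min at 22 °C before imaging.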

| Sequence | switch fluorescence ratio |
| --- | --- |
| CCTGGGTTAT | 1.02 ± 0.011 |
| ATGAAGCATG | 1.08 ± 0.04 |
| CACGCGAGGA | 1.12 ± 0.12 |
| TTCGATTGGG | 0.95725 ± 0.00037 |
| ATGAGTTCTC | 1 ± 0.042 |
| CCGTGGTTTT | 0.99133 ± 5.8e-05 |
| TTTCTGGCGA | 1.054 ± 0.01 |
| CCAGGGGGTT | 1.51 ± 0.59 |
| CAACAAGGCA | 1.02 ± 0.0071 |
| TCATGACCCA | 1.03 ± 0.018 |
| GGGTAAGAGT | 1 ± 0.043 |
| AGGCTGCAG | 0.961 ± 0.037 |
| ACTTTGATTG | 0.982 ± 0.024 |
| TGGTTTTTTT | 0.992 ± 0.018 |
| TAGTGTATTA | 1.01 ± 0.018 |
| GGGTATTTTT | 0.994 ± 0.014 |
| GAGTGCGGGA | 1.02 ± 0.044 |
| TAAGGTTACT | 0.977 ± 0.035 |
| ACAGGGGGGC | 1.06 ± 0.03 |
| TTAGGAGAAA | 1.03 ± 0.053 |
| TAATCTAGGG | 0.985 ± 0.046 |
| AGAAGGGTTA | 1.01 ± 0.017 |
| AATAATCTTT | 1.02 ± 0.013 |
| TGGATGTCTG | 0.978 ± 0.044 |
| ATTGTGGGGC | 1 ± 0.022 |
| TCCGGGGGTA | 1.12 ± 0.12 |

| Sequence | switch fluorescence ratio |
| --- | --- |
| GATACAGTAA | 1.06 ± 0.017 |
| ACGGTCTTGG | 0.999 ± 0.015 |
| GGGGCGACTA | 1.03 ± 0.052 |
| TTAGGGTCGG | 1 ± 0.036 |
| GATAGACTTT | 1.02 ± 0.048 |
| ATACTATTAT | 1.03 ± 0.013 |
| CGGGGCGTCA | 0.978 ± 0.032 |
| CCGGTGTAGA | 1.01 ± 0.034 |
| CAGTTTATGA | 0.971 ± 0.039 |
| ACTTGGGAAT | 1.03 ± 0.02 |
| GGGCTAAGGC | 0.9923 ± 0.0037 |
| GACGTAGT | 1.01 ± 0.022 |
| TTGGGTATAA | 0.989 ± 0.03 |
| GGGGGCTTCG | 0.992 ± 0.048 |
| AATTCGAGAT | 1.01 ± 0.034 |
| GATCTTCGGC | 0.9541 ± 0.0027 |
| TCATTTCGA | 0.988 ± 0.02 |
| AGTCAAACGA | 1.03 ± 0.028 |
| AATCATGGAG | 0.9891 ± 0.004 |
| AGGTCTCTTT | 0.982 ± 0.021 |
| GTCATAGTTC | 0.966 ± 0.015 |
| ATAAGCCCGT | 0.976 ± 0.014 |
| ATATAAAAAG | 1.02 ± 0.061 |
| ACTGGCGGCG | 1 ± 0.012 |
| TTCGTGTAAG | 1.02 ± 0.015 |
| AAAGTGCTAT | 1.02 ± 0.048 |

| Sequence | switch fluorescence ratio |
| --- | --- |
| TTCATGGGGA | 0.985 ± 0.023 |
| TGTAGGAAGT | 0.992 ± 0.017 |
| TTGTGCGAGA | 0.989 ± 0.013 |
| TGATTGGTGG | 1.01 ± 0.041 |
| GATGAGGTTC | 0.967 ± 0.053 |
| TGAGTGGGAG | 0.998 ± 0.021 |
| GGAAATTCAT | 1.36 ± 0.54 |
| ATGTGGGGAC | 1.01 ± 0.084 |
| CTTAAATGGG | 0.955 ± 0.019 |
| GTTTTTTTTT | 1.02 ± 0.07 |
| GGGCAATGAG | 1.09 ± 0.023 |
| TTGGAAGTGG | 0.9995 ± 0.0088 |
| TCGTAGTGGC | 1.11 ± 0.1 |
| CCCTGTGAGC | 1.08 ± 0.013 |
| GGTATGCGCT | 0.9934 ± 0.0049 |
| CGGCCGAACT | 1.033 ± 0.0064 |
| AAGTACGTTG | 1.12 ± 0.057 |
| GCATGTTAGG | 1.01 ± 0.063 |
| AAGGAAGTGC | 1.003 ± 0.0086 |
| GTGTTAGGTT | 1.01 ± 0.017 |
| AGGTTGAGGG | 0.984 ± 0.025 |
| TTTTGTGG | 1.01 ± 0.073 |
| GACATATGGG | 0.967 ± 0.035 |
| ATTATATGGT | 0.98 ± 0.029 |
| GAGGGCTAGG | 0.997 ± 0.023 |
| GCGGGTAGTG | 1.02 ± 0.028 |

| Sequence | switch fluorescence ratio |
| --- | --- |
| CCAAAGGTTT | 1.13 ± 0.22 |
| ATGGATGTGG | 0.979 ± 0.055 |
| TTTTCGGGGA | 0.978 ± 0.018 |
| AATTTTGGAG | 0.996 ± 0.02 |
| CGGGTGAGGG | 1.017 ± 0.0065 |
| GTTTGAGCAC | 1.02 ± 0.023 |
| AGGGGTCCCG | 0.93546 ± 0.00063 |
| GGGTTGGTTT | 1.0207 ± 0.00021 |
| GAGGCGGCAT | 1.04 ± 0.0066 |
| GGGGATGGGA | 1.01 ± 0.033 |
| TTAGGGGACG | 0.981 ± 0.04 |
| TTTTAGGTGC | 1.09 ± 0.099 |
| AAGTTTGTGG | 0.973 ± 0.047 |
| GCTAGCTCAG | 1.023 ± 0.008 |
| AGGTGCATAA | 1.05 ± 0.017 |
| CGAATTCAGG | 1.012 ± 0.0068 |
| TGCGCAATTT | 1.205 ± 0.0054 |
| AGGGGGGTTT | 1 ± 0.024 |
| CGTGAAAGG | 0.9546 ± 0.0042 |
| TAATATGGGG | 1.01 ± 0.039 |
| TCGGGAAGAG | 0.98832 ± 5e-05 |
| GCAATTGTTG | 1.021 ± 0.01 |
| CGACGGCTGG | 1.01 ± 0.07 |
| AAGTTTTCCG | 0.964 ± 0.062 |
| ACATACAGGG | 1.31 ± 0.038 |
| TCTGTGCTGG | 0.98 ± 0.024 |

| Sequence | switch fluorescence ratio |
| --- | --- |
| GAAGTTATCG | 0.982 ± 0.022 |
| AGTTTTGGCA | 1.03 ± 0.015 |
| CGTGGATGCG | 1.025 ± 0.0038 |
| CGGACATTCA | 1.041 ± 0.0082 |
| ATCATGATTC | 0.983 ± 0.018 |
| CGGATTTTAT | 1.02 ± 0.035 |
| AGTGCAACTG | 1.01 ± 0.03 |
| GGTTCATGGT | 0.989 ± 0.011 |
| TTAACACGGA | 1.01 ± 0.019 |
| TGTCGGGTTA | 1.01 ± 0.027 |
| TGTTGAATGT | 1.02 ± 0.03 |
| TTATATTAAG | 1.01 ± 0.031 |
| GGGTATTGTG | 0.994 ± 0.033 |
| TTCTGTTTTT | 1.09 ± 0.15 |
| TACTGGTCCA | 1.051 ± 0.0087 |
| GTTTGTCACC | 1.03 ± 0.034 |
| GTAATGCTCA | 1.36 ± 0.062 |
| CAGATTAAGT | 0.992 ± 0.03 |
| GAGGGGAACC | 0.992 ± 0.032 |
| GATAAGATGG | 0.979 ± 0.034 |
| TCTGGTAGAG | 1.02 ± 0.023 |
| GGAATAGATT | 0.99048 ± 0.00037 |
| TGCAGGGCGG | 0.9806 ± 0.0017 |
| GGGTTTGAA | 0.988 ± 0.021 |
| CATTGGAGTC | 0.998 ± 0.043 |
| TAGGGGTGTA | 1 ± 0.04 |

| Sequence | switch fluorescence ratio |
| --- | --- |
| CGTCTGCGCG | 0.972 ± 0.081 |
| AAGATGACGC | 1.12 ± 0.13 |
| GGTCCTTAGG | 1 ± 0.021 |
| AAACTTTTTT | 0.9566 ± 0.0049 |
| GATGATGAGG | 0.9961 ± 0.0073 |
| TGGGAACCAA | 1.02 ± 0.022 |
| AGCTTCGTCT | 1.04 ± 0.065 |
| CGAAACGGGG | 0.983 ± 0.042 |
| GTCGAGGATG | 1.018 ± 0.0049 |
| TAGGGGTTGT | 1.02 ± 0.028 |
| GTTGGGACGT | 0.973 ± 0.013 |
| GCTTATTAGT | 1 ± 0.0042 |
| TTTTTAGGGG | 1.02 ± 0.055 |
| ATTTACAAGT | 1.003 ± 0.0063 |
| ATTCAGTTGG | 0.9776 ± 0.0071 |
| AGGTAAAGGC | 1.02 ± 0.022 |
| TGTAGGTGGT | 0.978 ± 0.016 |
| TATAGCTTTT | 0.9869 ± 0.0031 |
| CTGTTGAAAA | 1.07 ± 0.022 |
| GCGAGGTAGG | 0.9669 ± 0.0043 |
| TTGGATACGT | 1.03 ± 0.091 |
| TAGGTGCTTT | 1.079 ± 0.0059 |
| ATTAAGCGGC | 1.05 ± 0.13 |
